koff data for one molecule are collected here from article PMC8980211 (2022).

The target in the assay is SARS-CoV-2 RBD protein (immobilised in SPR) (SARS-CoV-2, UniProt P0DTC2 319-541). The assay is described as follows: SPR.

B1: mAb 35B5 (antibody, V domains shown)
VH: QVQLLESGGGLVQPGRSLRLSCAASGFTFDDYAMHWVRQAPGKGLEWVSGVSWNSGTIGYADSVKGRFTISRDNAKNSLYLHMRSLRAEDTALYYCAKAVEMVRGLMGLGADPEYGMDVWGQGTTVTVSS
VL: not shown
Turning to B1, the koff (in general, a measure of how fast the partners let go of each other) worked out at 5.49e-06 s⁻¹.
